This passage reports Kd results from paper PMC8196010 (Communications Biology, 2021).

The target in experiment [1] is recombinant human PALS1 PDZ (residues 255-336) (Homo sapiens, UniProt Q8N3R9). The experiment is described as follows: biochemical. The experiment is classed as binding.
In experiment [2] the target is SARS-CoV-1 E protein C-terminal PBM (Severe acute respiratory syndrome coronavirus) (UniProt P59637). The following applies: cited from earlier work.
The target in experiment [3] is SARS-CoV-2 E protein C-terminal PBM (Severe acute respiratory syndrome coronavirus 2) (UniProt P0DTC4). The following applies: cited from earlier work.
Experiment [4] deals with SARS-CoV-1 E protein PBM (Severe acute respiratory syndrome coronavirus). The experiment is described as follows: ITC. (Isothermal titration calorimetry measures the heat released or taken up as one component is titrated into another.)
Experiment [5] has as its target SARS-CoV-2 E protein PBM (Severe acute respiratory syndrome coronavirus 2). Kind of experiment: ITC.

No end group written: not given here.

The Kd is the equilibrium constant for the complex coming apart.

As to EGVPDLLV [SARS-CoV-2 PBM], the Kd in experiment [1] was found to be 22.8 ± 1.2 µM.
With PALS1 PDZ (from UniProt Q8N3R9), the figures for the dissociation constant Kd in experiment [2] and in experiment [3] were 130 µM and 40 µM, respectively.
On to SRVPDLLV [SARS-CoV-1 PBM], for which the dissociation constant (Kd) in experiment [1] worked out at 29.6 ± 2.3 µM.

B1: PALS1 255-336, Q8N3R9 (protein)
chain: KIVRIEKARDIPLGATVRNEMDSVIISRIVKGGAAEKSGLLHEGDEVLEINGIEIRGKDVNEVFDLLSDMHGTLTFVLIPSQ
As for B1, the results for the Kd in experiment [4] and in experiment [5] were 29.6 µM and 22.8 µM, respectively.
